Data on 94 variants can be found in the supplement of paper PMC10567573.

The chains are these.
B1: ZNF649 (parent)
chain: DECEKAYFYMSCLVKHKRIHSREK
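Note: lentivirally expressed fusions sorted by FACS into six bins by GFP to DsRed ratio, PSI derived from sequencing read proportions per bin multiplied by bin number.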

This data set covers variants of B1. In words: protein stability index of a GFP-peptide fusion (GPS, HEK-293T) (PSI 1-6); higher = more stable. Particulars: c terminus: a fixed tail appended.
Consider GECEKAYFYMSCLVKHKRIHSREK, for which the protein stability index amounted to 1.92.

Take KECEKAYFYMSCLVKHKRIHSREK: the protein stability index worked out at 2.

As to PECEKAYFYMSCLVKHKRIHSREK, the protein stability index was 2.44.

For IECEKAYFYMSCLVKHKRIHSREK, the protein stability index amounted to 1.98.

In the case of QECEKAYFYMSCLVKHKRIHSREK, the protein stability index came to 2.44.

Consider AECEKAYFYMSCLVKHKRIHSREK, for which the protein stability index was 2.41.

As for HECEKAYFYMSCLVKHKRIHSREK, the protein stability index was 2.61.

As for LECEKAYFYMSCLVKHKRIHSREK, the protein stability index came to 1.98.

For YECEKAYFYMSCLVKHKRIHSREK, the protein stability index stood at 2.17.

RECEKAYFYMSCLVKHKRIHSREK: the protein stability index came out at 2.03.

Turning to EECEKAYFYMSCLVKHKRIHSREK, the protein stability index amounted to 2.47.

In the case of FECEKAYFYMSCLVKHKRIHSREK, the protein stability index worked out at 1.98.

Consider NECEKAYFYMSCLVKHKRIHSREK, for which the protein stability index is 2.72.

Consider WECEKAYFYMSCLVKHKRIHSREK, for which the protein stability index is 2.2.

In the case of SECEKAYFYMSCLVKHKRIHSREK, the protein stability index was determined as 2.81.

In the case of MECEKAYFYMSCLVKHKRIHSREK, the protein stability index amounted to 2.06.

As to CECEKAYFYMSCLVKHKRIHSREK, the protein stability index came to 1.98.

For VECEKAYFYMSCLVKHKRIHSREK, the protein stability index worked out at 1.57.

For TECEKAYFYMSCLVKHKRIHSREK, the protein stability index amounted to 2.9.

Take DECEKANFYMSCLVKHKRIHSREK: the protein stability index was determined as 3.61.

As for DECEKAEFYMSCLVKHKRIHSREK, the protein stability index was determined as 3.7.

As to DECEKADFYMSCLVKHKRIHSREK, the protein stability index was determined as 4.07.

For DECEKAMFYMSCLVKHKRIHSREK, the protein stability index is 2.19.

Consider DECEKASFYMSCLVKHKRIHSREK, for which the protein stability index came out at 3.3.

Take DECEKAFFYMSCLVKHKRIHSREK: the protein stability index stood at 2.88.

For the variant DECEKAVFYMSCLVKHKRIHSREK, the protein stability index was determined as 2.68.

DECEKAAFYMSCLVKHKRIHSREK: the protein stability index amounted to 3.53.

For DECEKATFYMSCLVKHKRIHSREK, the protein stability index came to 3.

For the variant DECEKAKFYMSCLVKHKRIHSREK, the protein stability index worked out at 3.57.

Regarding DECEKAPFYMSCLVKHKRIHSREK, the protein stability index was found to be 3.54.

As for DECEKALFYMSCLVKHKRIHSREK, the protein stability index came to 2.26.

Take DECEKARFYMSCLVKHKRIHSREK: the protein stability index is 3.55.

For DECEKAHFYMSCLVKHKRIHSREK, the protein stability index turned out to be 3.35.

For DECEKACFYMSCLVKHKRIHSREK, the protein stability index turned out to be 3.25.

As for DECEKAIFYMSCLVKHKRIHSREK, the protein stability index stood at 2.23.

For the variant DECEKAQFYMSCLVKHKRIHSREK, the protein stability index worked out at 3.99.

Turning to DECEKAWFYMSCLVKHKRIHSREK, the protein stability index turned out to be 2.25.

DECEKAGFYMSCLVKHKRIHSREK: the protein stability index is 3.38.

Consider DECEKAYDYMSCLVKHKRIHSREK, for which the protein stability index came to 3.88.

DECEKAYMYMSCLVKHKRIHSREK: the protein stability index came out at 3.36.

DECEKAYAYMSCLVKHKRIHSREK: the protein stability index amounted to 3.44.

Take DECEKAYEYMSCLVKHKRIHSREK: the protein stability index stood at 4.18.

Take DECEKAYPYMSCLVKHKRIHSREK: the protein stability index is 4.1.

DECEKAYSYMSCLVKHKRIHSREK: the protein stability index came to 3.78.

Regarding DECEKAYHYMSCLVKHKRIHSREK, the protein stability index is 3.79.

For DECEKAYGYMSCLVKHKRIHSREK, the protein stability index worked out at 4.02.

Turning to DECEKAYRYMSCLVKHKRIHSREK, the protein stability index is 2.82.

Regarding DECEKAYIYMSCLVKHKRIHSREK, the protein stability index was 2.67.

With DECEKAYNYMSCLVKHKRIHSREK, the protein stability index is 3.7.

Turning to DECEKAYKYMSCLVKHKRIHSREK, the protein stability index is 3.6.

As for DECEKAYLYMSCLVKHKRIHSREK, the protein stability index is 2.48.

Regarding DECEKAYTYMSCLVKHKRIHSREK, the protein stability index was 3.52.

On to DECEKAYCYMSCLVKHKRIHSREK, for which the protein stability index turned out to be 2.96.

As for DECEKAYVYMSCLVKHKRIHSREK, the protein stability index is 3.23.

As to DECEKAYQYMSCLVKHKRIHSREK, the protein stability index was determined as 3.75.

Take DECEKHYFYMSCLVKHKRIHSREK: the protein stability index came to 2.58.

As to DECEKFYFYMSCLVKHKRIHSREK, the protein stability index stood at 1.64.

Consider DECEKNYFYMSCLVKHKRIHSREK, for which the protein stability index was determined as 2.65.

As for DECEKEYFYMSCLVKHKRIHSREK, the protein stability index was 3.01.

Turning to DECEKMYFYMSCLVKHKRIHSREK, the protein stability index stood at 1.9.

For the variant DECEKLYFYMSCLVKHKRIHSREK, the protein stability index stood at 2.08.

In the case of DECEKVYFYMSCLVKHKRIHSREK, the protein stability index was determined as 1.96.

As for DECEKIYFYMSCLVKHKRIHSREK, the protein stability index was found to be 1.89.

On to DECEKRYFYMSCLVKHKRIHSREK, for which the protein stability index is 2.35.

Turning to DECEKTYFYMSCLVKHKRIHSREK, the protein stability index stood at 2.55.

As for DECEKSYFYMSCLVKHKRIHSREK, the protein stability index turned out to be 3.04.

On to DECEKPYFYMSCLVKHKRIHSREK, for which the protein stability index turned out to be 2.79.

In the case of DECEKDYFYMSCLVKHKRIHSREK, the protein stability index worked out at 3.52.

Consider DECEKQYFYMSCLVKHKRIHSREK, for which the protein stability index came out at 3.02.

For the variant DECEKWYFYMSCLVKHKRIHSREK, the protein stability index was 2.03.

With DECEKYYFYMSCLVKHKRIHSREK, the protein stability index is 1.76.

With DECEKGYFYMSCLVKHKRIHSREK, the protein stability index is 2.75.

On to DECEKCYFYMSCLVKHKRIHSREK, for which the protein stability index came out at 2.08.

Take DECEKKYFYMSCLVKHKRIHSREK: the protein stability index amounted to 2.56.

As to DEQEKAYFYMSCLVKHKRIHSREK, the protein stability index amounted to 3.11.

Take DEWEKAYFYMSCLVKHKRIHSREK: the protein stability index stood at 1.97.

Take DEEEKAYFYMSCLVKHKRIHSREK: the protein stability index was found to be 3.97.

Consider DEIEKAYFYMSCLVKHKRIHSREK, for which the protein stability index is 1.81.

On to DEVEKAYFYMSCLVKHKRIHSREK, for which the protein stability index was determined as 2.55.

DEMEKAYFYMSCLVKHKRIHSREK: the protein stability index was 2.4.

Turning to DEDEKAYFYMSCLVKHKRIHSREK, the protein stability index was found to be 2.98.

Take DESEKAYFYMSCLVKHKRIHSREK: the protein stability index was 2.53.

With DETEKAYFYMSCLVKHKRIHSREK, the protein stability index stood at 2.9.

Consider DENEKAYFYMSCLVKHKRIHSREK, for which the protein stability index is 2.64.

Turning to DEPEKAYFYMSCLVKHKRIHSREK, the protein stability index is 2.77.

DEKEKAYFYMSCLVKHKRIHSREK: the protein stability index is 2.88.

As for DEGEKAYFYMSCLVKHKRIHSREK, the protein stability index turned out to be 2.92.

On to DEYEKAYFYMSCLVKHKRIHSREK, for which the protein stability index stood at 2.67.

As to DEHEKAYFYMSCLVKHKRIHSREK, the protein stability index amounted to 2.35.

As to DEFEKAYFYMSCLVKHKRIHSREK, the protein stability index was found to be 1.91.

For DEREKAYFYMSCLVKHKRIHSREK, the protein stability index came to 2.33.

For the variant DEAEKAYFYMSCLVKHKRIHSREK, the protein stability index is 3.06.

Turning to DELEKAYFYMSCLVKHKRIHSREK, the protein stability index stood at 1.8.

Take DLCEKAYFYMSCLVKHKRIHSREK: the protein stability index is 2.25.
